Results from patent publication US20130252307A1.
Values belong to the molecule of their own block, whether it stands above or below them.

Tests used:
[1] = biological target: (I27G32C-A75C)8 polypeptide (UniProt Q8WZ42)
[2] = biological target: (I27G32C-A75C)8 polypeptide, Q8WZ42
[3] = biological target: (I27G32C-A75C)8 polypeptide (UniProt Q8WZ42); test: given as k10 (k10=δ0); three-state kinetic model fitted to force-dependent disulfide reduction rates, single-molecule AFM force-clamp, pH 7.2; not a direct binding assay
[4] = biological target: (I27G32C-A75C)8 polypeptide (UniProt Q8WZ42); test: given as α0 (k01=α0[Trx]); three-state kinetic model fitted to force-dependent disulfide reduction rates, single-molecule AFM force-clamp, pH 7.2; not a direct binding assay

Molecule: Trx from Acetobacter aceti
rate of disulfide reduction at pH 5, 100 pN [1]: active at pH 5 (0.6×10^5 M^-1 s^-1 at 100 pN)

Molecule: Trx from Sulfolobus tokodaii
rate of disulfide reduction at pH 5 [1]: does not show detectable activity at pH 5
rate of disulfide reduction at pH 7, 50 pN [1]: active at pH 7 (0.12×10^5 M^-1 s^-1 at 50 pN)

koff [3]: 4.2 s⁻¹
kon [4]: 760000 M⁻¹ s⁻¹
B1: last eukaryotic common ancestor (LECA) Trx (protein)
chain: MVIQVTNKEEFEAILSEADKLVVVDFFATWCGPCKMIAPFFEELSEEYPDKVVFIKVDVDEVPDVAAKYGITSMPTFKFFKNGKKVDELVGANQEKLKQMILKHAP
staircases of single reduction events (AFM force-clamp) [2]: All the ancestral enzymes resurrected using the methods described herein were able to trigger staircases of reduction events
Δx12 (Å) [2]: -0.8 Å
β0 (s-^1) [2]: 38 s⁻¹
λ0 [2]: 0.18 s⁻¹

koff [3]: 4.6 s⁻¹
kon [4]: 810000 M⁻¹ s⁻¹
B2: last common ancestor of animals and fungi (LAFCA) Trx (protein)
chain: MVIQVTNKDEFESILSEADKLVVVDFTATWCGPCKMIAPKFEELSEEYPDNVVFLKVDVDEVEDVAAEYGISAMPTFQFFKNGKKVDELTGANQEKLKAMIKKHAA
staircases of single reduction events (AFM force-clamp) [2]: All the ancestral enzymes resurrected using the methods described herein were able to trigger staircases of reduction events
Δx12 (Å) [2]: -0.74 Å
β0 (s-^1) [2]: 37 s⁻¹
λ0 [2]: 0.06 s⁻¹

koff [3]: 3.8 s⁻¹
kon [4]: 480000 M⁻¹ s⁻¹
B3: last common ancestor of γ-proteobacteria (LGPCA) Trx (protein)
chain: MSIIHVTDDSFDQDVLKADKPVLVDFWAEWCGPCKMIAPILDEIAEEYEGKLKVAKVNIDENPETAAKYGIRGIPTLMLFKNGEVAATKVGALSKSQLKEFLDANL
staircases of single reduction events (AFM force-clamp) [2]: All the ancestral enzymes resurrected using the methods described herein were able to trigger staircases of reduction events
Δx02 (Å) [2]: 0.17 Å
Δx12 (Å) [2]: -0.83 Å
β0 (s-^1) [2]: 34 s⁻¹
γ0 [2]: 0.012 µM⁻¹ s⁻¹
λ0 [2]: 0.35 s⁻¹

B4: archaeal/eukaryotic common ancestor (AECA) Trx (protein)
chain: MSVIEINDENFDEVIKKSDKVVVVDFWAEWCGPCRMIAPIIEELAEEYAGKVVFGKVNVDENPEIAAKYGIMSIPTLLFFKNGKVVDQLVGARPKEALKERIKKYL
rate constant of disulfide bond reduction extrapolated to zero force (pH 7.2) [2]: 30×10^5 M^-1 s^-1 for AECA Trx
reduction rate constant at pH 5 extrapolated to zero force [2]: 19×10^5 M^-1 s^-1
staircases of single reduction events (AFM force-clamp) [2]: All the ancestral enzymes resurrected using the methods described herein were able to trigger staircases of reduction events
Δx02 (Å) [2]: 0.19 Å
Δx12 (Å) [2]: -0.84 Å
β0 (s-^1) [2]: 25 s⁻¹
γ0 [2]: 0.019 µM⁻¹ s⁻¹
λ0 [2]: 0.21 s⁻¹

B5: last archaeal common ancestor (LACA) Trx (protein)
chain: MSVVQLNDENFDEVIKKNNKVVVVDFWAEWCGPCRMIAPIIEELAKEYAGKVVFGKLNVDENPETAAKYGIMSIPTLLFFKNGKVVDQLVGAMPKEALKERIKKYL
rate constant of disulfide bond reduction extrapolated to zero force (pH 7.2) [2]: 29×10^5 M^-1 s^-1 for LACA Trx
reduction rate constant at pH 5 extrapolated to zero force [2]: 6.2×10^5 M^-1 s^-1
staircases of single reduction events (AFM force-clamp) [2]: All the ancestral enzymes resurrected using the methods described herein were able to trigger staircases of reduction events
Δx12 (Å) [2]: -0.76 Å
β0 (s-^1) [2]: 43 s⁻¹
λ0 [2]: 0.38 s⁻¹

B6: wild type human Trx enzyme (protein)
chain: VKQIESKTAFQEALDAAGDKLVVVDFSATWCGPCKMIKPFFHSLSEKYSNVIFLEVDVDDCQDVASECEVKCMPTFQFFKKGQKVGEFSGANKEKLEATINELV
rate of reduction at pH 5, fold lower than LBCA [2]: modern E. coli and human thioredoxin show ˜20 fold lower rates at this pH
reoxidation of substrate disulfide bonds during refolding (step sizes in the probe pulse) [2]: none of the refolded domains formed a disulfide bond, indicating that the wild type form of thioredoxin does not catalyze reoxidation

B7: C35S human thioredoxin mutant (hTrx^C35S) (protein)
chain: VKQIESKTAFQEALDAAGDKLVVVDFSATWCGPSKMIKPFFHSLSEKYSNVIFLEVDVDDCQDVASECEVKCMPTFQFFKKGQKVGEFSGANKEKLEATINELV
reoxidation of substrate disulfide bonds during refolding (step sizes in the probe pulse) [2]: the step sizes during the probe pulse are now entirely composed of 11 and 14 nm steps, indicating the full reoxidation of all the disulfide bonds

koff [3]: 4.9 s⁻¹
kon [4]: 470000 M⁻¹ s⁻¹
B8: last common ancestor of cyanobacterial and deinococcus/thermus groups (LPBCA) Trx (protein)
chain: MSVIEVTDENFEQEVLKSDKPVLVDFWAPWCGPCRMIAPIIEELAKEYEGKVKVVKVNVDENPNTAAQYGIRSIPTLLLFKNGQVVDRLVGAQPKEALKERIDKHL
staircases of single reduction events (AFM force-clamp) [2]: All the ancestral enzymes resurrected using the methods described herein were able to trigger staircases of reduction events
Δx02 (Å) [2]: 0.17 Å
Δx12 (Å) [2]: -0.71 Å
β0 (s-^1) [2]: 30 s⁻¹
γ0 [2]: 0.017 µM⁻¹ s⁻¹
λ0 [2]: 0.19 s⁻¹

koff [3]: 5.8 s⁻¹
kon [4]: 470000 M⁻¹ s⁻¹
B9: last bacterial common ancestor (LBCA) Trx (protein)
chain: MSVIEINDENFEEEVLKSDKPVLVDFWAPWCGPCRMIAPIIEELAEEYEGKVKFAKVNVDENPETAAKYGIMSIPTLLLFKNGEVVDKLVGARPKEALKERIEKHL
rate of catalysis at pH 5 [2]: showed a high rate of catalysis at pH 5, where extant enzymes are largely inactive
reduction rates at pH 5 [2]: the reduction rates observed at pH 5 are strikingly similar to those measured at pH 7.2
staircases of single reduction events (AFM force-clamp) [2]: All the ancestral enzymes resurrected using the methods described herein were able to trigger staircases of reduction events
Δx02 (Å) [2]: 0.19 Å
Δx12 (Å) [2]: -0.74 Å
β0 (s-^1) [2]: 30 s⁻¹
γ0 [2]: 0.004 µM⁻¹ s⁻¹
λ0 [2]: 0.09 s⁻¹
